Laboratory results: the supplement of paper PMC9112550, “Optimization of the antimicrobial peptide Bac7 by deep mutational scanning” (BMC Biology, 2022)

system: Escherichia coli TOP10; assay: shrunken log2 fold change of peptide-encoding DNA abundance (4.5 h post-induction vs induction); higher = less antimicrobial activity (less host growth inhibition); details: time post-induction: 4.5 h; library: site-saturation at positions 5, 18, 19, 20
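Further: peptides expressed intracellularly from a pBAD plasmid library in pooled LB shake-flask culture, induced with 0.3% L-arabinose, DNA abundance read by NGS, three biological replicates, DESeq2 with apeglm shrinkage.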

| Sequence | shrunken log2 fold change |
| --- | --- |
| RRIRHRPPRLPRPRPRPKWFPRP | -0.233 |
| RRIRHRPPRLPRPRPRPKWVPRP | -0.302 |
| RRIRHRPPRLPRPRPRPKYHPRP | -0.773 |
| RRIRHRPPRLPRPRPRPKYVPRP | -0.0624 |
| RRIRHRPPRLPRPRPRPLCCPRP | -0.0675 |
| RRIRHRPPRLPRPRPRPLCGPRP | -0.302 |
| RRIRHRPPRLPRPRPRPLCIPRP | -0.165 |
| RRIRHRPPRLPRPRPRPLDVPRP | 0.0138 |
| RRIRHRPPRLPRPRPRPLEHPRP | -0.00318 |
| RRIRHRPPRLPRPRPRPLEQPRP | -0.0138 |
| RRIRHRPPRLPRPRPRPLERPRP | -0.0962 |
| RRIRHRPPRLPRPRPRPLEWPRP | -0.0135 |
| RRIRHRPPRLPRPRPRPLGQPRP | 0.0866 |
| RRIRHRPPRLPRPRPRPLGWPRP | 0.708 |
| RRIRHRPPRLPRPRPRPLKKPRP | -0.157 |
| RRIRHRPPRLPRPRPRPLLQPRP | 0.112 |
| RRIRHRPPRLPRPRPRPLRDPRP | 0.271 |
| RRIRHRPPRLPRPRPRPLRHPRP | -0.132 |
| RRIRHRPPRLPRPRPRPLRTPRP | 1.02 |
| RRIRHRPPRLPRPRPRPLSQPRP | -0.0443 |
| RRIRHRPPRLPRPRPRPLSYPRP | -0.895 |
| RRIRHRPPRLPRPRPRPLTQPRP | -0.417 |
| RRIRHRPPRLPRPRPRPLTWPRP | -0.135 |
| RRIRHRPPRLPRPRPRPLVAPRP | -0.103 |
| RRIRHRPPRLPRPRPRPLWHPRP | -0.138 |

| Sequence | shrunken log2 fold change |
| --- | --- |
| RRIRHRPPRLPRPRPRPLYHPRP | -0.198 |
| RRIRHRPPRLPRPRPRPLYSPRP | -0.792 |
| RRIRHRPPRLPRPRPRPMADPRP | 0.0417 |
| RRIRHRPPRLPRPRPRPMCCPRP | 0.101 |
| RRIRHRPPRLPRPRPRPMCDPRP | -0.0945 |
| RRIRHRPPRLPRPRPRPMEDPRP | 0.0325 |
| RRIRHRPPRLPRPRPRPMHAPRP | -9.3e-05 |
| RRIRHRPPRLPRPRPRPMLPPRP | -0.0141 |
| RRIRHRPPRLPRPRPRPMPEPRP | 0.283 |
| RRIRHRPPRLPRPRPRPMREPRP | 0.237 |
| RRIRHRPPRLPRPRPRPMRHPRP | -0.0546 |
| RRIRHRPPRLPRPRPRPMRVPRP | -0.0146 |
| RRIRHRPPRLPRPRPRPMTEPRP | 0.0178 |
| RRIRHRPPRLPRPRPRPMTWPRP | 0.148 |
| RRIRHRPPRLPRPRPRPMWMPRP | -0.000946 |
| RRIRHRPPRLPRPRPRPMWNPRP | -0.0721 |
| RRIRHRPPRLPRPRPRPMWRPRP | 0.136 |
| RRIRHRPPRLPRPRPRPMWWPRP | 0.177 |
| RRIRHRPPRLPRPRPRPMYKPRP | -0.138 |
| RRIRHRPPRLPRPRPRPNANPRP | -0.801 |
| RRIRHRPPRLPRPRPRPNEHPRP | 0.409 |
| RRIRHRPPRLPRPRPRPNEIPRP | -0.21 |
| RRIRHRPPRLPRPRPRPNFIPRP | -0.0658 |
| RRIRHRPPRLPRPRPRPNGMPRP | -0.0133 |
| RRIRHRPPRLPRPRPRPNGNPRP | -0.617 |

| Sequence | shrunken log2 fold change |
| --- | --- |
| RRIRHRPPRLPRPRPRPNHCPRP | -0.0509 |
| RRIRHRPPRLPRPRPRPNHYPRP | -0.939 |
| RRIRHRPPRLPRPRPRPNIAPRP | -0.112 |
| RRIRHRPPRLPRPRPRPNIEPRP | -0.172 |
| RRIRHRPPRLPRPRPRPNKHPRP | -0.627 |
| RRIRHRPPRLPRPRPRPNKYPRP | -0.782 |
| RRIRHRPPRLPRPRPRPNMFPRP | -0.464 |
| RRIRHRPPRLPRPRPRPNMSPRP | -0.245 |
| RRIRHRPPRLPRPRPRPNNLPRP | -0.596 |
| RRIRHRPPRLPRPRPRPNNQPRP | -0.465 |
| RRIRHRPPRLPRPRPRPNNVPRP | -0.68 |
| RRIRHRPPRLPRPRPRPNNWPRP | -0.269 |
| RRIRHRPPRLPRPRPRPNPHPRP | -0.35 |
| RRIRHRPPRLPRPRPRPNPQPRP | -0.00216 |
| RRIRHRPPRLPRPRPRPNQIPRP | -0.327 |
| RRIRHRPPRLPRPRPRPNRFPRP | -0.00088 |
| RRIRHRPPRLPRPRPRPNTFPRP | -0.00529 |
| RRIRHRPPRLPRPRPRPNTYPRP | -0.742 |
| RRIRHRPPRLPRPRPRPNVEPRP | -0.063 |
| RRIRHRPPRLPRPRPRPNVKPRP | -0.112 |
| RRIRHRPPRLPRPRPRPNVSPRP | -0.0959 |
| RRIRHRPPRLPRPRPRPNVVPRP | 0.015 |
| RRIRHRPPRLPRPRPRPPCFPRP | -0.0882 |
| RRIRHRPPRLPRPRPRPPDCPRP | 0.182 |
| RRIRHRPPRLPRPRPRPPDNPRP | -0.0231 |
